Target: T1, RNF31 PUB domain (Homo sapiens, UniProt Q96EP0)
T1 construct: MBP-TEV (N, cleaved yes); made in house; host or cells: E. coli BL21 (DE3) pLysS
T1 sequence (Q96EP0 1-179): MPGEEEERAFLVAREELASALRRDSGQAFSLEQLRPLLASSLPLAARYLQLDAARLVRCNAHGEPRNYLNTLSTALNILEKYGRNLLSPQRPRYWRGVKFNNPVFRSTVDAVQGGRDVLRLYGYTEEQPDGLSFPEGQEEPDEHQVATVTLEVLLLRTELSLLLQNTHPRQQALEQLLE
Assay: Phage Library Screening with NGS, RNF31 PUB domain
Type: binding
Conditions: for Phage library screen NGS readout, Target Concentration 10 / Phage library screen NGS readout, Target Concentration 30 / Phage library screen NGS readout, Target Concentration 100 / Phage library screen NGS readout, Target Concentration 300 / Phage library screen NGS readout, Target Concentration 1000: RNF31 PUB domain clusters C41-C45; for Phage library screen NGS readout, BLANK: clusters C41-C45

[1] = target concentration 1000, first column
[2] = target concentration 1000, second column

Phage library screen NGS readout, Target Concentration 10	Phage library screen NGS readout, Target Concentration 30	Phage library screen NGS readout, Target Concentration 100	Phage library screen NGS readout, Target Concentration 300	Phage library screen NGS readout, Target Concentration 1000 [1]	Phage library screen NGS readout, Target Concentration 1000 [2]	Phage library screen NGS readout, BLANK (column 1 of 5)	Phage library screen NGS readout, BLANK (column 2 of 5)	Phage library screen NGS readout, BLANK (column 3 of 5)	Phage library screen NGS readout, BLANK (column 4 of 5)	Phage library screen NGS readout, BLANK (column 5 of 5)	Sequence
0	0	4	61	350	353	1	0	3	1	0	DPARDWCLYAAYDCYTA (Ac-DPARDWCLYAAYDCYTA-NH2; not fully specified (bridges); cysteine pairing not given here)
0	0	1	12	40	44	0	0	1	0	0	DPARRECWDAAILCTYY
0	0	0	4	15	11	0	0	0	2	0	DPAVVDCWDAAVQCTYY
2	0	1	8	46	29	0	1	0	0	1	DPAWDYCMYAAYDCNHS
1	1	1	3	6	4	1	1	1	0	2	DPAWLDCIYAAYDCVTD
0	0	0	4	6	5	0	0	0	0	0	DPAWMQCMYAAWDCNIE
1	0	0	0	6	6	0	0	0	1	0	DPAWTDCDWAALYCEFQ

The remaining lines, values behind:

Sequence	Phage library screen NGS readout, Target Concentration 10	Phage library screen NGS readout, Target Concentration 30	Phage library screen NGS readout, Target Concentration 100	Phage library screen NGS readout, Target Concentration 300	Phage library screen NGS readout, Target Concentration 1000 [1]	Phage library screen NGS readout, Target Concentration 1000 [2]	Phage library screen NGS readout, BLANK (column 1 of 5)	Phage library screen NGS readout, BLANK (column 2 of 5)	Phage library screen NGS readout, BLANK (column 3 of 5)	Phage library screen NGS readout, BLANK (column 4 of 5)	Phage library screen NGS readout, BLANK (column 5 of 5)
DPASEWCLDAAVLCTYS	0	0	3	18	63	65	2	0	0	0	0
DPASHMCLEAAVMCTYD	0	0	0	4	10	13	0	0	0	0	0
DPATEACFDAAIECTYY	0	0	0	2	7	5	0	0	0	0	0
DPATWWCLYAAEDCVNI	0	1	0	2	6	6	0	0	0	0	4
DPAWEHCLYAAYDCTHE	0	1	0	2	10	15	0	4	0	0	0
DPAWESCMYAAYDCDNE	0	1	0	2	14	5	0	0	0	0	0
DPAWEWCLYAAAECIED	0	0	0	2	12	5	0	0	0	0	0
DPAWMDCLYAAYDCQHM	2	2	0	9	29	24	1	1	1	0	0
DPAWNDCLYAAETCISW	1	1	1	3	11	1	2	1	1	0	0
DPAWQECVIAALVCDTY	0	0	0	3	13	8	0	0	1	4	0
DPAWTDCDWAALYCDES	0	0	0	0	8	4	0	0	0	0	0

Source: patent publication US20240376151A1, “STAPLED PEPTIDES AND METHODS THEREOF” (FOG PHARMACEUTICALS, INC., priority 2022, published 2024)
